What was measured:
[1] = target: human Mac-1 (integrin αMβ2, CD11b/CD18) (human) (UniProt P11215); experiment: flow cytometry, HEK293/Mac-1 cells (clone 1-4), PBS (Mock)
[2] = target: human Mac-1 (integrin αMβ2, CD11b/CD18) (human) (UniProt P11215); experiment: flow cytometry, HEK293/Mac-1 cells (clone 1-4), PBS/MnCl2 (Mn2+)
[3] = target: human Mac-1 (integrin αMβ2, CD11b/CD18) (human) (UniProt P11215); experiment: flow cytometry, HEK293/Mac-1 cells; MFI in PBS over MFI in PBS/MnCl2
[4] = target: human Mac-1 (integrin αMβ2, CD11b/CD18) (human) (UniProt P11215); experiment: flow cytometry, HEK293/Mac-1 cells, PBS (Mock); binding of reporter mAb m24 read; control IgG4, the reference set to 1
[5] = target: human Mac-1 (integrin αMβ2, CD11b/CD18) (human) (UniProt P11215); experiment: flow cytometry, HEK293/Mac-1 cells, PBS (Mock); binding of reporter mAb KIM127 read; control IgG4, the reference set to 1
[6] = target: human Mac-1 (integrin αMβ2, CD11b/CD18) (human) (UniProt P11215); experiment: flow cytometry, HEK293/Mac-1 cells, PBS/MnCl2 (Mn2+); binding of reporter mAb m24 read; control IgG4, the reference set to 1
[7] = target: human Mac-1 (integrin αMβ2, CD11b/CD18) (human) (UniProt P11215); experiment: flow cytometry, HEK293/Mac-1 cells, PBS/MnCl2 (Mn2+); binding of reporter mAb KIM127 read; control IgG4, the reference set to 1
[8] = target: human Mac-1 (integrin αMβ2, CD11b/CD18) (human) (UniProt P11215); experiment: flow cytometry, HEK293/Mac-1 cells (clone 1-4), PBS (Mock); isotype control
[9] = target: human Mac-1 (integrin αMβ2, CD11b/CD18) (human) (UniProt P11215); experiment: flow cytometry, HEK293/Mac-1 cells (clone 1-4), PBS/MnCl2 (Mn2+); isotype control
[10] = target: human Mac-1 (integrin αMβ2, CD11b/CD18) (human) (UniProt P11215); experiment: flow cytometry, HEK293/Mac-1 cells; MFI in PBS over MFI in PBS/MnCl2; isotype control
[11] = target: human Mac-1 (integrin αMβ2, CD11b/CD18) (human) (UniProt P11215); experiment: flow cytometry, HEK293/Mac-1 cells, PBS (Mock), 10 µg/ml of this antibody; binding of reporter mAb m24 read
[12] = target: human Mac-1 (integrin αMβ2, CD11b/CD18) (human) (UniProt P11215); experiment: flow cytometry, HEK293/Mac-1 cells, PBS (Mock), 10 µg/ml of this antibody; binding of reporter mAb KIM127 read
[13] = target: human Mac-1 (integrin αMβ2, CD11b/CD18) (human) (UniProt P11215); experiment: flow cytometry, HEK293/Mac-1 cells, PBS/MnCl2 (Mn2+), 10 µg/ml of this antibody; binding of reporter mAb m24 read
[14] = target: human Mac-1 (integrin αMβ2, CD11b/CD18) (human) (UniProt P11215); experiment: flow cytometry, HEK293/Mac-1 cells, PBS/MnCl2 (Mn2+), 10 µg/ml of this antibody; binding of reporter mAb KIM127 read

Substance | Mock MFI [1] | Mn^2+ MFI [2] | Mock/Mn^2+ Ratio [3] | m24 (Expression relative to IgG4) (relative to IgG4) [11] | KIM127 (Expression relative to IgG4) (relative to IgG4) [12] | m24 (Expression relative to IgG4) (relative to IgG4) [13] | KIM127 (Expression relative to IgG4) (relative to IgG4) [14] | also measured
CD11b activation-sensing mAb (CBRM1/5) (antibody) | 143000 MFI | 181000 MFI | 0.79 |  |  |  |  | 
IgG4 control (antibody) |  |  |  |  |  |  |  | m24 (Expression relative to IgG4) (relative to IgG4) [4]: 1; KIM127 (Expression relative to IgG4) (relative to IgG4) [5]: 1; m24 (Expression relative to IgG4) (relative to IgG4) [6]: 1; KIM127 (Expression relative to IgG4) (relative to IgG4) [7]: 1
isotype control IgG (antibody) |  |  |  |  |  |  |  | Mock MFI [8]: 941 MFI; Mn^2+ MFI [9]: 935 MFI; Mock/Mn^2+ Ratio [10]: 1.01
CD11b specific mAb (clone ICRF44) (antibody) | 805000 MFI | 801000 MFI | 1.01 | 0.66 | 0.94 | 0.66 | 0.75 | 
M1/70 (antibody) |  |  |  | 0.71 | 0.94 | 0.8 | 0.84 | 

— US20240084017A1
